Tested on: PTZ-induced epilepsy in ICR mice
Assay: Pentylenetetrazole (PTZ) induced epilepsy in mice
Assay type: in vivo, mouse
Design: mortality rate: unit not given here
Settings: for Cases of deaths / Grade IV seizure rate / mortality rate / Cases of Grade IV: PTZ 65 mg/kg i.p., 10 mice; for Cases of Grade IV: 15 min observation; for Grade III seizure incubation period / Grade IV seizure incubation period: mean±SEM; for Grade IV seizure incubation period: no Grade IV recorded as maximum 900 s
Procedure: • Animals: male ICR mice; • Medicines: Pentylenetetrazol (PTZ), Retigabine, Protein BD-11.
Experiment grouping: • Model group; • Retigabine 60 mg/kg group; • Protein BD-11, 50 mg/kg group, 200 mg/kg group;
The drug was administered once in the afternoon the day before modeling, On the day of modeling, PTZ-65 mg/kg (modeling agent) was injected intraperitoneal 1 hour after the test drug was administered intragastrically, and the positive drug can be administered once half an hour before modeling. Continue to observe for 15 minutes after injection of PTZ.
Observation index: ①Seizure situation: the time of seizures from Grade III to […]; ②Death situation
Seizure grade: Refer to Racine grading standard: Grade 0: No response; Grade I: manifested as twitching of facial muscles or the corners of the mouth; Grade II: can nod; Grade III: twitching of one limb; Grade IV: rigidity or body twitching; Grade V: generalized epilepsy (generalized tonic seizures).
Count the cases of seizures and deaths in each group of mice in the experiment; Grade III and IV incubation period. The incubation period of mice that have not attacked to Grade IV is recorded as the maximum of 900 seconds. Chi-square test was used for statistics of the number of cases. Calculate the mean and standard error of the incubation period. Use TTEST to compare the model group with other groups, and P<0.05 is considered as a significant difference.

B1: BD-11: recombinant keratin, amino acid sequence SEQ ID NO:1, expressed in E. coli, band around 59 kD; Example 4 batch tested (protein, listed as Bos taurus)
chain: MSRQSTITFQTSSRRGFSTASATTPATSRSRFSSASVTHSPAGSGGLGRISGFGSRSLYNLGGTKRVSISGCGSNFRSGFGGRASSGFGVSGGFGYGGGIGGGHGGCGFSVCPPGGIQEVTVNQSLLTPLNLQIDPNIQRVRKEEREQIKTLNNKFASFIDKVRFLEQQNKVLETKWSLLQEQGTRTVRQSLEPFFEAYITDLRRQLDSITTERGRLDAELRTMQDVVEDFKVRYEDEINKRTAAENEFVALKKDVDAAYLNKVDLEAKANSLTDEINFLQMLFEAELCQMQTRVSDTSVVLSMDNNRSLDLDSIIAEVKAQYEEIANRSRAEAESWYQTKYEELQVTAGQHGDDLRNTKQEISETNRMIQRLRAEIDNVKKQCASLQTAIADAEQRGELALKDARAKLVDLEEALQKSKQDMARLLREYQELMNIKLALDVEIATYRKLLEGEECRLSGEGVSPVNISVVTSTVSSGYGGGSSIGSGSLGLSGGSGCSFMTSGGHSLGGSSFSNSSSRGLGGSGSSFKFVSTTSSSRKSYKH
Q: What does the source list for B1?
A: Cases of deaths (BD-11 50 mg/kg intragastric): 0; Grade IV seizure rate (BD-11 50 mg/kg intragastric): 90%; mortality rate (BD-11 50 mg/kg intragastric): 0; Cases of Grade IV (BD-11 50 mg/kg intragastric): 9; Grade III seizure incubation period (BD-11 50 mg/kg, PTZ model): 68 ± 5 s; Grade IV seizure incubation period (BD-11 50 mg/kg, PTZ model): 203 ± 81 s; Incubation period of Grade III epilepsy, comparison with model group (BD-11 200 mg/kg dose group, PTZ model): significantly different from the model group; Cases of deaths (BD-11 200 mg/kg intragastric): 0; Grade IV seizure rate (BD-11 200 mg/kg intragastric): 60%; mortality rate (BD-11 200 mg/kg intragastric): 0; Cases of Grade IV (BD-11 200 mg/kg intragastric): 6; Grade III seizure incubation period (BD-11 200 mg/kg, PTZ model): 94 ± 12 s; Grade IV seizure incubation period (BD-11 200 mg/kg, PTZ model): 428 ± 130 s

Reference: US20230183305A1, “KERATIN BD-11, PREPARATION METHOD THEREFOR AND PHARMACEUTICAL COMPOSITION AND USE THEREOF” (INSTITUTE OF MATERIA MEDICA, CHINESE ACADEMY OF MEDICAL …, priority 2019, published 2023)
